Reference: publication PMC10796598

Biological target: synaptobrevin2 (syb2) All ItoA (rat) (UniProt P63045)

- mean open-state dwell time (<t (o-obs)>) of single fusion pores, ND5S(All ItoA) on t-SNARE BLM: 36 ms
Substance: synaptobrevin2 (syb2) All ItoA (from UniProt P63045 1-116) (natural protein)
